Patent publication US20240034774A1 (Gilead, published 2024)

How the values were obtained:
[1] = molecular target: BSA (UniProt P02769 25-607); test: single-point ELISA, BSA control
[2] = molecular target: gp120 CAAN (HIV (CAAN)); test: single-point ELISA at EC50 conc. of A-1
[3] = molecular target: gp120 SHIV SF162 P3 (SHIV SF162 P3); test: single-point ELISA at EC50 conc. of A-1
[4] = molecular target: gp120 Bal (HIV (Bal)); test: single-point ELISA at EC50 conc. of A-1

B1: 1.21.1-1 (antibody, human IgG1, kappa)
heavy: QVQLLQSGAAVTKPGASVRVSCEASGYNIRDYFIHWWRQAPGQGLQWVGWINPKTGQPNNPRQFQGRVSLTRDASWDFDTFSFYMDLKALRSDDTAVYFCARQRSDYWDFDVWGSGTQVTVSSASTKGPSVFPLAPSSKSTSGGTAALGCLVKDYFPEPVTVSWNSGALTSGVHTFPAVLQSSGLYSLSSVVTVPSSSLGTQTYICNVNHKPSNTKVDKKVEPKSCDKTHTCPPCPAPELLAGPDVFLFPPKPKDTLMISRTPEVTCVVVDVSHEDPEVKFNWYVDGVEVHNAKTKPREEQYNSTYRVVSVLTVLHQDWLNGKEYKCKVSNKALPLPEEKTISKAKGQPREPQVYTLPPSREEMTKNQVSLTCLVKGFYPSDIAVEWESNGQPENNYKTTPPVLDSDGSFFLYSKLTVDKSRWQQGNVFSCSVLHEALHSHYTQKSLSLSPGK
light: DIQMTQSPSSLSASVGDTVTITCQANGYLNWYQQRRGKAPKLLIYDGSKLERGVPSRFSGRRWGQEYNLTINNLQPEDIATYFCQVYEFVVPGTRLDLKRTVAAPSVFIFPPSDEQLKSGTASVVCLLNNFYPREAKVQWKVDNALQSGNSQESVTEQDSKDSTYSLSSTLTLSKADYEKHKVYACEVTHQGLSSPVTKSFNRGEC
[1]
  ELISA A450: 0.07 A450
[2]
  ELISA A450: 0.77 A450
[3]
  ELISA A450: 0.82 A450
[4]
  ELISA A450: 0.87 A450

B2: 1.24.1-1 (antibody, human IgG1, kappa)
heavy: QVQLLQSGAAVTKPGASVRVSCEASGYNIRDYFIHWWRQAPGQGLQWVGWINPKTGQPNNPRQFQGRVSLTRHASWDFDTFSFSMDLKALRSDDTAVYFCARQRSDYWDFDVWGSGTQVTVSSASTKGPSVFPLAPSSKSTSGGTAALGCLVKDYFPEPVTVSWNSGALTSGVHTFPAVLQSSGLYSLSSVVTVPSSSLGTQTYICNVNHKPSNTKVDKKVEPKSCDKTHTCPPCPAPELLAGPDVFLFPPKPKDTLMISRTPEVTCVVVDVSHEDPEVKFNWYVDGVEVHNAKTKPREEQYNSTYRVVSVLTVLHQDWLNGKEYKCKVSNKALPLPEEKTISKAKGQPREPQVYTLPPSREEMTKNQVSLTCLVKGFYPSDIAVEWESNGQPENNYKTTPPVLDSDGSFFLYSKLTVDKSRWQQGNVFSCSVLHEALHSHYTQKSLSLSPGK
light: DIQMTQSPSSLSASVGDTVTITCQANGYLNWYQQRRGKAPKLLIYDGSKLERGVPSRFSGRRWGQEYNLTINNLQPEDIATYFCQVYEFVVPGTRLDLKRTVAAPSVFIFPPSDEQLKSGTASVVCLLNNFYPREAKVQWKVDNALQSGNSQESVTEQDSKDSTYSLSSTLTLSKADYEKHKVYACEVTHQGLSSPVTKSFNRGEC
[1]
  ELISA A450: 0.06 A450
[2]
  ELISA A450: 0.9 A450
[3]
  ELISA A450: 1.09 A450
[4]
  ELISA A450: 0.98 A450

B3: 1.25.1-1 (antibody, human IgG1, kappa)
heavy: QVQLLQSGAAVTKPGASVRVSCEASGYNIRDYFIHWWRQAPGQGLQWVGWINPKTGQPNNPRQFQGRVSLTRHASWDFDTFSFYMDLSRLRSDDTAVYFCARQRSDYWDFDVWGSGTQVTVSSASTKGPSVFPLAPSSKSTSGGTAALGCLVKDYFPEPVTVSWNSGALTSGVHTFPAVLQSSGLYSLSSVVTVPSSSLGTQTYICNVNHKPSNTKVDKKVEPKSCDKTHTCPPCPAPELLAGPDVFLFPPKPKDTLMISRTPEVTCVVVDVSHEDPEVKFNWYVDGVEVHNAKTKPREEQYNSTYRVVSVLTVLHQDWLNGKEYKCKVSNKALPLPEEKTISKAKGQPREPQVYTLPPSREEMTKNQVSLTCLVKGFYPSDIAVEWESNGQPENNYKTTPPVLDSDGSFFLYSKLTVDKSRWQQGNVFSCSVLHEALHSHYTQKSLSLSPGK
light: DIQMTQSPSSLSASVGDTVTITCQANGYLNWYQQRRGKAPKLLIYDGSKLERGVPSRFSGRRWGQEYNLTINNLQPEDIATYFCQVYEFVVPGTRLDLKRTVAAPSVFIFPPSDEQLKSGTASVVCLLNNFYPREAKVQWKVDNALQSGNSQESVTEQDSKDSTYSLSSTLTLSKADYEKHKVYACEVTHQGLSSPVTKSFNRGEC
[1]
  ELISA A450: 0.06 A450
[2]
  ELISA A450: 1.16 A450
[3]
  ELISA A450: 1.03 A450
[4]
  ELISA A450: 1.07 A450
